Source: patent US20220324978A1
Where a chain is given by its changes, count along the chain named.

T1: Histidine-tagged canine PD-1 protein (canine)
T1 sequence: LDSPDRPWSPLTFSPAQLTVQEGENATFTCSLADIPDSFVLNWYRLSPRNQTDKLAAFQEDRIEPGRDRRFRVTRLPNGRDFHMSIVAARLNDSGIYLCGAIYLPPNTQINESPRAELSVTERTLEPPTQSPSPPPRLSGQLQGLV

B1: 1D8-H1K1-dIgG4 (antibody, V domains shown)
VH: EVQLVESGGDLVKPVGSLRLSCVASGFTFNNFGMSWVRQAPGKGLQWVATLSSGSSYTYYSDSVKGRFTISRDNAKNTLYLQMNSLRAEDTAMYYCTRGESRFAYWGQGTLVTVSA
VL: GVVITQDPLSLAVTPGELVTISCRSSKSLLYKDGKTYLNWYLQKPGQTPRLLIYLMSTRASGVSDRFSGSGSGTDFTLKISRVEAEDVGVYYCQQLIEYPLTFGAGTKVELK
B2: 1D8-H1K2-dIgG4 (antibody, V domains shown)
VH: B1 VH
VL: B1 VL with Y41F
B3: 1D8-H2K1-dIgG4 (antibody, V domains shown)
VH: B1 VH with Q46E
VL: B1 VL
B4: 1D8-H2K2-dIgG4 (antibody, V domains shown)
VH: B1 VH with Q46E
VL: B1 VL with Y41F
B5: 1D8-mHvKv-dIgG4 (antibody, V domains shown)
VH: B1 VH with V15G, R19K, V23A, A40N, G42D, G44R, Q46E, R87K, A88S
VL: GVVITQDELSNPVTSGESVSISCRSSKSLLYKDGKTYLNWFLQRPGQSPQLLIYLMSTRASGVSDRFSGSGSGTDFTLEISRVKAEDVGVYYCQQLIEYPLTFGAGTKLELKR
B6: 1B9-H1K1-IgG4 (antibody, V domains shown)
VH: EVQLVQSGAEVKKPGASVKVSCKTSGYTFTSFWMNWVRLAPGAGLDWIGRVDPYDSETHYNQKFKDRVILTVDTSTSTAYMELSSLRAGDIAVYYCATQFGFSWLAYWGQGTLVTVSA
VL: EIVMTQSPGSLAGSAGESVSINCKSSQSLLYSSNQKNYLAWYQQKPGESPKLLIYWASTRESGVPDRFSGSGSGTDFTLTINNLQAEDVGVYYCQQYYSNPYTFGQGTKLEIK
B7: 1B9-H1K2-IgG4 (antibody, V domains shown)
VH: B6 VH
VL: B6 VL with E1D, G13V, L84V
B8: 1B9-H2K1-IgG4 (antibody, V domains shown)
VH: B6 VH with T24A, D46E, V68A
VL: B6 VL
B9: 1B9-H2K2-IgG4 (antibody, V domains shown)
VH: B6 VH with T24A, D46E, V68A
VL: B6 VL with E1D, G13V, L84V
B10: 4A7-mHvKv-dIgG4 (antibody, V domains shown)
VH: EVQLVESGGDLVKPGGSLKLSCVASGFPFSNFGMSWVRQTPDKRLEWVATISSGSSYSYYSDSVKGRFTISRDNAKNTLFLQMNSLKSEDTAIFYCARGESRFAYWGQGTLVTVSA
VL: B5 VL with G1D, S26N, K32E, K35Q, R82E, K84R

The binders below were run against T1, Histidine-tagged canine PD-1 protein (canine) (assay: SPR (Biacore), dPD-1-His amine-coupled to CM5 chip, antibody injected, 1:1 Langmuir fit).

**Q.** Which results are given for B1?
**A.** Kd: 4.57 nM; koff: 0.00309 s⁻¹; kon: 675000 M⁻¹ s⁻¹

**Q.** Which Kd does the source give for B2 here?
**A.** 4.5 nM

**Q.** And the koff?
**A.** 0.00248 s⁻¹

**Q.** And the kon?
**A.** 550000 M⁻¹ s⁻¹

**Q.** With B3 as the binder, how does the Kd read?
**A.** 5.36 nM

**Q.** What about the koff of the same binder?
**A.** 0.00348 s⁻¹

**Q.** And the kon?
**A.** 650000 M⁻¹ s⁻¹

**Q.** With B4 as the binder, how does the Kd read?
**A.** 4.34 nM

**Q.** And the koff?
**A.** 0.00262 s⁻¹

**Q.** And the kon?
**A.** 604000 M⁻¹ s⁻¹

**Q.** With B5 as the binder, how does the Kd read?
**A.** 0.094 nM

**Q.** What about the koff of the same binder?
**A.** 0.000135 s⁻¹

**Q.** What about the kon of the same binder?
**A.** 1.44e+06 M⁻¹ s⁻¹

**Q.** Which results are given for B6?
**A.** Kd: 1.07 nM; koff: 0.000454 s⁻¹; kon: 424000 M⁻¹ s⁻¹

**Q.** With B7 as the binder, how does the Kd read?
**A.** 1.03 nM

**Q.** And the koff?
**A.** 0.00049 s⁻¹

**Q.** What about the kon of the same binder?
**A.** 475000 M⁻¹ s⁻¹

**Q.** With B8 as the binder, how does the Kd read?
**A.** 0.768 nM

**Q.** And the koff?
**A.** 0.000454 s⁻¹

**Q.** And the kon?
**A.** 591000 M⁻¹ s⁻¹

**Q.** For B9, which Kd is on record?
**A.** 0.745 nM

**Q.** And the koff?
**A.** 0.00043 s⁻¹

**Q.** And the kon?
**A.** 577000 M⁻¹ s⁻¹

**Q.** Which Kd does the source give for B10 here?
**A.** 0.29 nM

**Q.** And the koff?
**A.** 0.000152 s⁻¹

**Q.** And the kon?
**A.** 525000 M⁻¹ s⁻¹
